From article PMC3127848, “Decreased expression of BRCA1 in SK-BR-3 cells is the result of aberrant activation of the GABP Beta promoter by an NRF-1-containing complex”

Target: T1, recombinant NRF-1 (rNRF-1) (human, UniProt Q16656 1-503)
T1 sequence: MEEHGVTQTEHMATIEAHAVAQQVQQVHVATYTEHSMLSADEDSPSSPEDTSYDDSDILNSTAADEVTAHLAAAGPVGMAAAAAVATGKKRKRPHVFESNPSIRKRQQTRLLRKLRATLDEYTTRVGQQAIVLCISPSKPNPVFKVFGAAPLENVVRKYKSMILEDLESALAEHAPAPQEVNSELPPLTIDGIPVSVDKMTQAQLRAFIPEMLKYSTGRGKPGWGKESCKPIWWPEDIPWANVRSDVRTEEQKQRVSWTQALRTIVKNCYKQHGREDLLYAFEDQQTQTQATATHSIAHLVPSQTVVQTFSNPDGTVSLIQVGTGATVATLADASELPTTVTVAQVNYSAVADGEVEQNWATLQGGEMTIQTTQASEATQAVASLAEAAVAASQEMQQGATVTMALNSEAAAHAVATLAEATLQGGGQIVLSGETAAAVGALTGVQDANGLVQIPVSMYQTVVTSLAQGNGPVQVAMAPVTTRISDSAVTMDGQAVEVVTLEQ
Assay: EMSA; 0.03-5 ug protein, concentration-dependent; 25 mM HEPES pH 7.6, 5 mM MgCl2, 34 mM KCl, 50 ug/mL poly dI:dC, 0.5 mg/mL BSA, on ice 15 min; 6% acrylamide 0.25x TBE gel
Conditions: tags: N-terminal MBP fusion (pMAL-c2), chain copies: 2, label: 32P

B1: Gb-270 (dsDNA)
DNA 1: CTGCCGCGCAGGCGCCGGGC
DNA 2: GCCCGGCGCCTGCGCGGCAG
  binding result: binds
